Assay [1] deals with T1, human TREM2 (human, UniProt Q9NZC2 19-230).
T1 construct: on THP-1 WT cells and M2a-like macrophages (endogenous) and on CHO or HEK293T cells overexpressing human TREM2 with DAP12; also called hTREM2
T1 sequence: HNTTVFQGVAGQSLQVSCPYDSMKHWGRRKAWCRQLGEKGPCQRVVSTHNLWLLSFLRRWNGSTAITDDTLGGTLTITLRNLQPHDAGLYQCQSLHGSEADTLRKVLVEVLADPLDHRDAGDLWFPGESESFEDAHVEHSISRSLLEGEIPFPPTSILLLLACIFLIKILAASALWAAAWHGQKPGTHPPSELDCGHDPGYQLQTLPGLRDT
Nature of the assay: flow cytometry, competition with LDL-Alexafluor-488 on CHO cells overexpressing human TREM2/DAP12; positive control. The procedure: (§1) Exemplary anti-TREM2 antibodies were tested in order to characterize their ability to enter in competition with TREM2 ligand, LDL, on CHO overexpressing human TREM2/DAP12. Antibodies (dose response curves from 66.65 nM to 0.07 nM) were incubated for 30 min with cells in a soluble fashion, followed by an incubation with LDL coupled with Alexafluor-488 (at 1 μg/mL final) for 30 min. Finally, after 2 washes, cells were acquired on flow cytometer. The median MFI of Alexafluor-488 was used to plot the graphs. Benchmark antibody MOR044746 was used as positive control.

The target in assay [2] is T1, human TREM2. Nature of the assay: cell-based or functional assay.
Assay [3] addresses T1, human TREM2. Kind of assay: cell-based or functional assay. This is another data set of the same source.
For assay [4], the target named is T1, human TREM2. Kind of assay: flow cytometry, M2a-like macrophages. For orientation: In flow cytometry, cells or beads pass a laser one at a time.
For assay [5], the target named is T1, human TREM2. Nature of the assay: flow cytometry, THP-1 WT cells, 10 ug/ml.
Assay [6] addresses T2, cynomolgus TREM2 (cynomolgus, UniProt A0A2K5UY34 49-260).
T2 construct: also called cynoTREM2; cTREM2
T2 sequence: T1 sequence with A10E, W60R, L89F, F125V, I157V, L193P, Y201H
Kind of assay: MFI on CHO cells over-expressing cynoTREM2-DAP12. As for the experimental part:
(§2) Cross-reactivity of anti-TREM2 antibodies to cynomolgus TREM2 (cynoTREM2) was assessed using CHO over-expressing cynoTREM2-DAP12 (Table 22). Benchmark antibodies, AB52 and PN-37012, were examined for comparison.

Assay [7] deals with T1, human TREM2. Kind of assay: flow cytometry, M2a-like macrophages, dose-response.
For assay [8], the target named is T3, mouse TREM2 (mouse, UniProt Q99NH8 19-227).
T3 construct: whole, on cells
T3 sequence (looked up): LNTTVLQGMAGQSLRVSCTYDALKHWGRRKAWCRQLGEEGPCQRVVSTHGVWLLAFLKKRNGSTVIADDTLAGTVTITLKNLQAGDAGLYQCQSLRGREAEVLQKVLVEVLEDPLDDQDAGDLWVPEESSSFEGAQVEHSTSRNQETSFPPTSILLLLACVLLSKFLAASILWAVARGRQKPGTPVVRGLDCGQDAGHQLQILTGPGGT
Nature of the assay: MFI on CT26 cells over-expressing mouse TREM2 and DAP12.

Assay [9] addresses T1, human TREM2. Nature of the assay: flow cytometry, THP-1 WT vs THP-1 TREM2 KO cells, 10 ug/ml.
The target of assay [10] is T2, cynomolgus TREM2. Nature of the assay: MFI on CHO cells over-expressing cynoTREM2-DAP12 vs CHO empty vector. As for the experimental part: as §2
The target of assay [11] is T3, mouse TREM2. Nature of the assay: MFI on CT26 cells over-expressing mouse TREM2 and DAP12 vs CT26 empty vector.
Assay [12] has as its target T1, human TREM2. Nature of the assay: flow cytometry, competition with LDL-Alexafluor-488 on CHO cells overexpressing human TREM2/DAP12; only 1 value generated. As for the experimental part:
as §1

Where a chain is given by its changes, count along the chain named.

B1: MOR044746 (antibody, V domains shown)
VH: QVQLQQSGPGLVKPSQTLSLTCAISGDSVSSSSAAWNWIRQSPSRGLEWLGHIGYRSKWYNEYAVSVKSRITINPDTSKNQFSLQLNSVTPEDTAVYYCARGMYGSVPYKEGYYFDIWGQGTLVTVSS
VL: DIQMTQSPSSLSASVGDRVTITCRASQGISSDLNWYQQKPGKAPKLLIYAASNLQSGVPSRFSGSGSGTDFTLTISSLQPEDFATYYCQQYTDESMTFGQGTKVEIK
notes: benchmark anti-TREM2 antibody from WO2020079580
Regarding B1, the IC50 with human TREM2 [1] was 0.395 nM.

B2: EOS006175 (antibody, V domains shown)
VH: QVQLQESGPGLVKPSGTLSLTCAVSGGSISSSNWWSWVRQPPGKGLEWIGEIYHSGSTNYNPSLKSRVTISVDKSKNQFSLKLSSVTAADTAVYYCARDTKYWGGMDVWGQGTTVTVSS
VL: DIQMTQSPSSLSASVGDRVTITCQASQDISNYLNWYQQKPGKAPKLLIYDASNLATGVPSRFSGSGSGTDFTFTISSLQPEDIATYYCQQYVEAPTFGGGTKVEIK
For the molecule B2, the “Stabilization ratio (Mean of 2 replicates)” value in the assay with human TREM2 [2] stood at 0.39 ratio. Also, the “Fold over isotype control at 66 nM” value in the assay with human TREM2 [3] stood at 0.757 fold. Further, in the assay with human TREM2 [4], the Fold over isotype came out at 5.8 fold. Besides, the “Fold over isotype control THP1 WT” value in the assay with human TREM2 [5] was 5.5 fold. For the same molecule, the “Binding to CHO-cTREM2 MFI” value with cynomolgus TREM2 [6] is 10200 MFI. In the assay with human TREM2 [7], this molecule showed a Kd of 1.06 nM. The “Binding to CT26-TREM2 MFI” value with mouse TREM2 [8] is 1390 MFI. For the same molecule, the “MFI Fold change (THP-1 WT over THP-1 TREM2 KO)” value with human TREM2 [9] was 5.8 fold. Also, the “MFI Fold change (CHO-cTREM2 over CHO-EV)” value with cynomolgus TREM2 [10] turned out to be 233 fold. In the assay with mouse TREM2 [11], the “MFI Fold change (CT26-TREM2 over CT26-EV)” value is 3.9 fold. Further, in the assay with human TREM2 [12], the IC50 amounted to 0.28 nM.

A word on the IC50: it is the concentration that gives 50% inhibition. Higher therefore signals lower potency. As a reminder, the Kd is the concentration at which binding is half-saturated. Low values mean higher affinity, high ones lower affinity.

Values taken from patent US20250282868A1 (ITEOS BELGIUM, published 2025).
